Read-outs that look alike come from different tables or passages of the source.
T1: Canine CD20 (canine, UniProt Q3C2E2 1-297)
T1 chain: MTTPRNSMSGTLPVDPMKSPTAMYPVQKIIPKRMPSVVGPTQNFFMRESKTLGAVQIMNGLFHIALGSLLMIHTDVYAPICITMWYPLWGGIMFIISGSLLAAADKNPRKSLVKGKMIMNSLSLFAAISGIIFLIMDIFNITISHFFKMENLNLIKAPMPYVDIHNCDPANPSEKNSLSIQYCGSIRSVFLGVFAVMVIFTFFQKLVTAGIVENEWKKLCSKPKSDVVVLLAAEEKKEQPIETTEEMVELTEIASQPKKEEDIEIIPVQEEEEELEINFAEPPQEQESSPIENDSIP

T2: Feline CD20 (feline)
T2 construct: also called recombinant feline CD20
T2 chain: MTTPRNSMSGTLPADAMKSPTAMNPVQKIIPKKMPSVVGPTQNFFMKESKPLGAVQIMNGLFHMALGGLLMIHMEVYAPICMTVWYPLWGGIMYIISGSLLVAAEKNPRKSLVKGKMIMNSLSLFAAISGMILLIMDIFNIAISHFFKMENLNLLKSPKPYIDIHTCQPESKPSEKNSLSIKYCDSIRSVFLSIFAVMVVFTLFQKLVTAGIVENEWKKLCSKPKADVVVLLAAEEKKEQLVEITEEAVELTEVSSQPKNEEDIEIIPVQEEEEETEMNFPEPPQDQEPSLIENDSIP


Key:
[1] = target: T1, Canine CD20; experiment: cell-based or functional assay
[2] = target: T1, Canine CD20; experiment: FACS on CHO cells expressing recombinant canine CD20
Protocol: The antibody variants of the present invention are compared for their binding affinity to canine CD20. Binding affinity is assessed by measuring binding to the recombinant canine CD20 expressed in CHO cells by FACS analysis as described above.

[3] = target: T2, Feline CD20; experiment: FACS on mammalian cells expressing recombinant feline CD20, antibody 2.5 µg/mL
Protocol: (§1) In the present example, the antibody variants (2.5 μg/mL) are incubated with mammalian cells expressing the recombinant feline CD20 or canine CD20 or control cells. The amount of bound antibody is assessed by detection with a fluorescent-labeled reporter antibody reagent. Several controls are utilized to determine the background fluorescence: (i) CD20 expressing cells are incubated with the conjugated secondary antibody with an isotype antibody, and (ii) Control cells are incubated with the anti-CD20 antibodies.
(§2) The results reported as mean fluorescence units evidence effective binding of the antibodies CD20-2, CD20-5, and CD20-6 to the recombinant canine CD20 expressed in HEK cells. Only CD20-2 and CD20-5 antibodies bind feline CD20 expressed in mammalian cells.

[4] = target: T1, Canine CD20; experiment: FACS on HEK cells expressing recombinant canine CD20, antibody 2.5 µg/mL
Protocol: as §1, §2

[5] = target: T1, Canine CD20; experiment: FACS on canine PBMC, 2 µg antibody, FITC anti-dog IgG
Protocol: In the present example, the antibody variants are incubated with the CD20 positive cells and the amount of bound antibody is assessed following incubation with a fluorescent-labeled reporter reagent. The reporter is thereafter measured by FACS.
Briefly, for each assay, one million cells of Peripheral Blood Mononuclear Cell (PBMC) isolated from whole blood from a normal dog by standard techniques were resuspended in FACS buffer (PBS+2% FBS). Two μg of the primary antibody are added to the cells and the samples were incubated at 4° C. for 1 h. The primary antibody is provided as supernatants from transfected cells with recombinant antibody constructs or from purified antibody preparation. The mouse anti-dog CD21 mAb (Serotec) recognizing B-lymphocytes is added to the cells as a control to estimate the percentage of B-lymphocytes in a given sample. One ml of FACS buffer are added and cells are spun down for 3 min at 800×g in Eppendorf microcentrifuge. The cells are washed with 1 mL FACS buffer and spun down again. The secondary antibodies such as fluorescein-isothiocynate (FITC) conjugated goat anti-mouse kappa (mFITC, Jackson ImmunoResearch), or the FITC-conjugated goat anti-dog IgG (H+L) (dFITC, Bethyl Laboratories) are added in 100 μL of FACS buffer supplemented with 1% BSA to appropriate tubes and the tubes were incubated at 4° C. for 30 minutes. The wash steps are repeated. The cells are then resuspended in 500 μL FACS buffer and transferred into 12×75 mm polystyrene test tubes. The cells are analyzed by FACS with a FacScan cytometer using the CellQuest software (Becton-Dickenson). Analysis gates are set on the live lymphocyte population based on typical forward and side scatter characteristics. Several controls are utilized to determine the background fluorescence: (i) one tube of cells is incubated with the FITC-conjugated secondary antibody without the primary antibody, and (ii) one tube of cells is incubated with PBS only.
The overall percentage of B-cell subset in this sample is estimated to be approximately 12% based on the binding of the anti-dog CD21 mab control. The results of Table 3 evidence effective binding of the antibody variants to lymphocytes.

[6] = target: T1, Canine CD20; experiment: FACS on CHO cells expressing recombinant canine CD20
[7] = target: T2, Feline CD20; experiment: FACS on mammalian cells expressing recombinant feline CD20
Protocol: as §1, §2

Binder	Reduction (%) of cell proliferation of lymphoma cells [1] [%]	Kd [2] [nM]	mean fluorescence units [3] [mean fluorescence units]	mean fluorescence units [4] [mean fluorescence units]	% Lymphocytes [5] [%]	Mean Fluorescence [5]	other results
VET 135 × VET 257 (antibody, V domains shown, Mixed pairing: CD20-2 light chain with CD20-1 heavy chain; also called VET135 x VET257) VH: EIQLQQSGAELVKPGASVKISCKASGYTFTDYYINWVKQRPGQGLEWIGKIGPGSGRTYYNEKFKGKATLTADKSSSTAYIQISSLTSEDSAVYFCAVLSWGQGTTLTVSS VL: DVVMSQSPSSLAVSVGEKVTMSCKSSQSLLYSGNQKNYLAWYQQKPGQSPRLLIYWASTRESGVPDRFTGSGSGTDFTLTISSVKAEDLAVFYCQQYYNYPLTFGAGTKLELKG	–	–	–	–	8.33	2500	–
VET 133 × VET 257 (antibody, V domains shown, Light chain vector VET133 co-transfected with heavy chain vector VET257 in 293F cells; mouse variable domains on canine constant domains; also called VET133 x VET257) VH: EIQLQQSGAELVKPGASVKISCKASGYTFTDYYINWVKQRPGQGLEWIGKIGPGSGRTYYNEKFKGKATLTADKSSSTAYIQISSLTSEDSAVYFCAVLSWGQGTTLTVSS VL: not shown	–	–	–	–	12	3170	–
anti-canine CD20 antibody CD20-1 (antibody, V domains shown, called 'recombinant anti-canine CD20 antibody'; also called Mab CD20-1) VH: EIQLQQSGAELVKPGASVKISCKASGYTFTDYYINWVKQRPGQGLEWIGKIGPGSGRTYYNEKFKGKATLTADKSSSTAYIQISSLTSEDSAVYFCAVLSWGQGTTLTVSS VL: not shown	–	–	–	–	–	–	Kd [6]: 1 nM
VET 133 × VET 260 (antibody, V domains shown, Mixed pairing: CD20-1 light chain with CD20-2 heavy chain; also called VET133 x VET260) VH: QVQLQQSRAELVRPGASVTLSCKPSGYTFTDYEVHWVKQTPVHGLEWIGAIDPETGGTADNQKFKGKAILTADKSSSTAYMELRSLTSEDSAVYYCTNFVDVWGTGTTVTVSS VL: not shown	–	–	–	–	13.7	2910	–
VET 135 × VET 260 (antibody, CD20-2 variable domains on canine constant domains; light chain differs from VET305 (which has the FR4T light chain); also called VET135 x VET260) heavy: QVQLQQSRAELVRPGASVTLSCKPSGYTFTDYEVHWVKQTPVHGLEWIGAIDPETGGTADNQKFKGKAILTADKSSSTAYMELRSLTSEDSAVYYCTNFVDVWGTGTTVTVSSASTTAPSVFPLAPSCGSQSGSTVALACLVSGYFPEPVTVSWNSGSLTSGVHTFPSVLQSSGLYSLSSMVTVPSSRWPSETFTCNVAHPASKTKVDKPVPKRENGRVPRPPDCPKCPAPEMLGGPSVFIFPPKPKDTLLIARTPEVTCVVVDLDPEDPEVQISWFVDGKQMQTAKTQPREEQFNGTYRVVSVLPIGHQDWLKGKQFTCKVNNKALPSPIERTISKARGQAHQPSVYVLPPSREELSKNTVSLTCLIKDFFPPDIDVEWQSNGQQEPESKYRTTPPQLDEDGSYFLYSKLSVDKSRWQRGDTFICAVMHEALHNHYTQKSLSHSPGK light: DVVMSQSPSSLAVSVGEKVTMSCKSSQSLLYSGNQKNYLAWYQQKPGQSPRLLIYWASTRESGVPDRFTGSGSGTDFTLTISSVKAEDLAVFYCQQYYNYPLTFGAGTKLELKGQPKASPSVTLFPPSSEELGANKATLVCLISDFYPSGVTVAWKADGSPITQGVETTKPSKQSNNKYAASSYLSLTPDKWKSHSSFSCLVTHEGSTVEKKVAPAECS	–	–	–	–	12.7	2660	–
VET 124 × VET 237 (antibody, V domains shown, also called VET124 x VET237) VH: EVQLQQSVAELVRPGASVTLSCKASGYTFTDYEMHWVKQTPVHGLEWIGEIDPETGGTAYNQKFKGKAILTADKSSSTAYMELRSLTSEDSAVYYCTEYAMDYWGQGTLVTVSS VL: not shown	–	–	–	–	13	2660	–

The next lines start with results.

Reduction (%) of cell proliferation of lymphoma cells [1] [%]	Kd [2] [nM]	mean fluorescence units [3] [mean fluorescence units]	mean fluorescence units [4] [mean fluorescence units]	% Lymphocytes [5] [%]	Mean Fluorescence [5]	Binder	other results
60.1	1.21	2048	2770	–	–	anti-canine CD20 antibody CD20-5 (VET308) (antibody, V domains shown, also called Mab CD20-5) VH: QVQLKQSGAELVKPGASVKISCKASGYTFTDYYINWVKQRPGQGLEWIGKIGPRSGSIYYNEKFKGKATLTADKSSSTAYMQLRSLTSEDSAVYFCAVLKWGQGTLVTVSS VL: not shown	–
27.6	63.4	60	2110	–	–	anti-canine CD20 antibody CD20-6 (VET309) (antibody, V domains shown, also called Mab CD20-6) VH: EIQLQQSGAELVRPGASVTLSCKASGYTFTDYEMHWVKQTPVHGLEWIGGIDPETGGTAYNQKFKGKAILTADKSSSTVYMELRSLTSEDSAVYYCTRDYGTSGYWGQGTLVTVSS VL: DVVVTQTPLSLPVSFGDQVSISCRSSQSLANSYGNTYLSWYLHKPGQSPQLLIYGISNRFSGVPDRFSGSGSGTDFTLKISRVEAEDLGVYFCSQSTHVPWTFGGGTHLTVLG	binding result [7]: no binding (tested: 2.5 µg/mL)
55	8.85	2210	2340	–	–	anti-canine CD20 antibody CD20-2 (VET305) (antibody, also called Mab CD20-2) heavy: QVQLQQSRAELVRPGASVTLSCKPSGYTFTDYEVHWVKQTPVHGLEWIGAIDPETGGTADNQKFKGKAILTADKSSSTAYMELRSLTSEDSAVYYCTNFVDVWGTGTTVTVSSASTTAPSVFPLAPSCGSQSGSTVALACLVSGYFPEPVTVSWNSGSLTSGVHTFPSVLQSSGLYSLSSMVTVPSSRWPSETFTCNVAHPASKTKVDKPVPKRENGRVPRPPDCPKCPAPEMLGGPSVFIFPPKPKDTLLIARTPEVTCVVVDLDPEDPEVQISWFVDGKQMQTAKTQPREEQFNGTYRVVSVLPIGHQDWLKGKQFTCKVNNKALPSPIERTISKARGQAHQPSVYVLPPSREELSKNTVSLTCLIKDFFPPDIDVEWQSNGQQEPESKYRTTPPQLDEDGSYFLYSKLSVDKSRWQRGDTFICAVMHEALHNHYTQKSLSHSPGK light: DVVMSQSPSSLAVSVGEKVTMSCKSSQSLLYSGNQKNYLAWYQQKPGQSPRLLIYWASTRESGVPDRFTGSGSGTDFTLTISSVKAEDLAVFYCQQYYNYPLTFGGGTHLTVLGQPKASPSVTLFPPSSEELGANKATLVCLISDFYPSGVTVAWKADGSPITQGVETTKPSKQSNNKYAASSYLSLTPDKWKSHSSFSCLVTHEGSTVEKKVAPAECS	–
